The target in test [1] is T1, recombinant Cad-11 EC1 human IgG1 fusion protein (R&D Systems Cat. No. 1790-CA-050) (human, UniProt P55287 54-617, limits assumed).
T1 construct: bought; also called recombinant human Cad-11 EC1; recombinant human Cad-11 fusion protein; not shown: human IgG1 part
T1 sequence: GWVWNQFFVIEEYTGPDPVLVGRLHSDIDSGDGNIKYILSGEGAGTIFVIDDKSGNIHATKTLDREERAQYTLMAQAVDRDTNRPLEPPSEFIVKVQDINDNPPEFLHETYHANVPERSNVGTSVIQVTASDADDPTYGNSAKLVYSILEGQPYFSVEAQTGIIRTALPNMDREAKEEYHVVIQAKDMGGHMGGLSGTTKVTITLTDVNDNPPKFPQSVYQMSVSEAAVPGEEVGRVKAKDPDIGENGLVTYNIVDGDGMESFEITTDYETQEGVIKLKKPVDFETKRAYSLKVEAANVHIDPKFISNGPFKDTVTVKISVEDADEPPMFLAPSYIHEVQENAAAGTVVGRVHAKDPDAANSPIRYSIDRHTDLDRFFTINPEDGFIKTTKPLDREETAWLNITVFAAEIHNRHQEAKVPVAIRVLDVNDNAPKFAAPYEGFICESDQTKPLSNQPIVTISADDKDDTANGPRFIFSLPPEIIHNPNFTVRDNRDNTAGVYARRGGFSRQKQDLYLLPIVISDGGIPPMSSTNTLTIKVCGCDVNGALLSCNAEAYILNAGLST
The experiment in a line: competition ELISA against biotinylated SYN0012/H1M1 (competitor) on coated fusion protein; text says values are normalised to the IC50 of SYN0012. The method, then: (§1) The binding of the purified humanized composite variant antibodies (SDP011 to SDP151) to a recombinant Cad-11 EC1 human IgG1 fusion protein was assessed in a competition binding ELISA. A dilution series from 5 μg/ml to 0.0022 μg/ml of the humanized or control (SYN0012/H1M1) antibodies was premixed with a constant concentration of biotinylated murine anti-Cad-11 antibody, SYN0012/H1M1 (0.1 μg/ml, final concentration), before incubating for 1 hour at room temperature on a NUNC-IIMMUNO™ MAXISORP™ 96 well flat bottom microtitre plate (Fisher Cat. No. DIS-971-030J) pre-coated with 0.25 μg/ml recombinant human Cad-11 EC1 (R&D Systems Cat. No. 1790-CA-050) diluted in PBS. The binding of the biotinylated mAb was detected with streptavidin-HRP (Sigma Cat. No. 55512) and tetramethylbenzidine (TMB) substrate (Invitrogen Cat. No. 00-2023).
(§2) All of the humanized anti-Cad-11 antibodies efficiently competed with SYN0012 for binding to the Cad-11 fusion protein (FIGS. 38A to C). […] The curves were used to calculate IC50 values for each antibody and these were normalized to the IC50 of SYN0012, which was included on each ELISA plate so that comparisons between plates could be made (Table 3). The expression levels of each cell line and the calculated isoelectric point (pI) of each antibody are also shown (Table 3).
The relative IC50 was calculated by dividing the value for the test antibody by that of SYN0012. Antibody expression levels given are for static cultures in T flasks. PI are calculated.
Background: An ELISA detects its analyte on a solid surface through an enzyme-linked reagent.

Test [2] concerns the target T1, recombinant Cad-11 EC1 human IgG1 …. The experiment in a line: competition ELISA on coated recombinant human Cad-11 EC1 fusion protein against biotinylated SYN0012 (0.1 µg/ml). The method, then: as §1, §2
Test [3] shares this target. Briefly: competition ELISA: antibody dilution series premixed with 0.1 µg/ml biotinylated SYN0012/H1M1, plate coated with recombinant human Cad-11 EC1 fusion protein, streptavidin-HRP, OD450. As for the experimental part: as §1, §2

B1: SDP081 humanized anti-Cad-11 EC1 antibody (Vκ2/VH3) (antibody, IgG4, V domains shown)
VH: EVQLVQSGAEVKKPGASVKISCKASGYSFTGYFMNWVRQAPGQGLEWIGRINPYTGDTFYNQKFKGRATLTVDKSTSTAYMELSSLRSEDTAVYYCGRLGSRYWYFDVWGQGTTVTVSS
VL: DVLMTQTPLSSPVTLGQPASISCRSSQSIIHSNGNTYLEWYLQKPGQSPQLLIYKVSNRFSGVPDRFSGSGSGTDFTLKISRVEAEDVGVYYCFQGSHVPWTFGQGTKLEIK
notes: humanized IgG4 (S241P), kappa
B1: the half-inhibitory concentration (IC50) in test [1] came to 0.42 µg/mL.

B2: SDP091 humanized anti-Cad-11 EC1 antibody (Vκ2/VH4) (antibody, IgG4, V domains shown)
VH: EVQLVQSGAEVKKPGASVKVSCKASGYSFTGYFMNWVRQAPGQGLEWIGRINPYTGDTFYNQKFKGRATITVDKSTSTAYMELSSLRSEDTAVYYCGRLGSRYWYFDVWGQGTTVTVSS
VL: DVLMTQTPLSSPVTLGQPASISCRSSQSIIHSNGNTYLEWYLQKPGQSPQLLIYKVSNRFSGVPDRFSGSGSGTDFTLKISRVEAEDVGVYYCFQGSHVPWTFGQGTKLEIK
notes: humanized IgG4 (S241P), kappa
As for B2, in test [1], the half-maximal inhibitory concentration (IC50) worked out at 0.57 µg/mL.

B3: SDP041 humanized anti-Cad-11 EC1 antibody (Vκ1/VH4) (antibody, IgG4, V domains shown)
VH: EVQLVQSGAEVKKPGASVKVSCKASGYSFTGYFMNWVRQAPGQGLEWIGRINPYTGDTFYNQKFKGRATITVDKSTSTAYMELSSLRSEDTAVYYCGRLGSRYWYFDVWGQGTTVTVSS
VL: DVLMTQTPLSSPVTLGQPASISCRSSQSIIHSNGNTYLEWYLQKPGQSPQLLIYKVSNRFSGVPDRFTGSGSGTDFTLKISRVEAEDVGVYYCFQGSHVPWTFGQGTKLEIK
notes: humanized IgG4 (S241P), kappa
With B3, in test [2], the “IC50 (read off the curve)” value is around 0.1 µg/mL. Further, in test [1], the IC50 is 0.65 µg/mL.

B4: SDP131 humanized anti-Cad-11 EC1 antibody (Vκ3/VH3) (antibody, IgG4, V domains shown)
VH: EVQLVQSGAEVKKPGASVKISCKASGYSFTGYFMNWVRQAPGQGLEWIGRINPYTGDTFYNQKFKGRATLTVDKSTSTAYMELSSLRSEDTAVYYCGRLGSRYWYFDVWGQGTTVTVSS
VL: DVVMTQTPLSSPVTLGQPASISCRSSQSIIHSNGNTYLEWYLQKPGQSPQLLIYKVSNRFSGVPDRFSGSGSGTDFTLKISRVEAEDVGVYYCFQGSHVPWTFGQGTKLEIK
notes: humanized IgG4 (S241P), kappa
With B4, the half-inhibitory concentration (IC50) in test [1] was determined as 0.55 µg/mL. The “IC50 (read off the curve)” value in test [3] is around 0.2 µg/mL.

B5: SDP141 humanized anti-Cad-11 EC1 antibody (Vκ3/VH4) (antibody, IgG4, V domains shown)
VH: EVQLVQSGAEVKKPGASVKVSCKASGYSFTGYFMNWVRQAPGQGLEWIGRINPYTGDTFYNQKFKGRATITVDKSTSTAYMELSSLRSEDTAVYYCGRLGSRYWYFDVWGQGTTVTVSS
VL: DVVMTQTPLSSPVTLGQPASISCRSSQSIIHSNGNTYLEWYLQKPGQSPQLLIYKVSNRFSGVPDRFSGSGSGTDFTLKISRVEAEDVGVYYCFQGSHVPWTFGQGTKLEIK
notes: humanized IgG4 (S241P), kappa
Take B5: in test [1], the concentration for half-maximal inhibition (IC50) was 0.61 µg/mL. Further, in test [3], the “IC50 (read off the curve)” value was around 0.2 µg/mL.

B6: SDP021 humanized anti-Cad-11 EC1 antibody (Vκ1/VH2) (antibody, IgG4, V domains shown)
VH: EVQLVQSGAEVKKPGASVKISCKASGYSFTGYFMNWVKQAPGQGLEWIGRINPYTGDTFYNQKFKGRATLTVDKSTSTAYMELSSLRSEDTAVYYCGRLGSRYWYFDVWGQGTTVTVSS
VL: DVLMTQTPLSSPVTLGQPASISCRSSQSIIHSNGNTYLEWYLQKPGQSPQLLIYKVSNRFSGVPDRFTGSGSGTDFTLKISRVEAEDVGVYYCFQGSHVPWTFGQGTKLEIK
notes: humanized IgG4 (S241P), kappa
B6: the “IC50 (read off the curve)” value in test [2] is around 0.1 µg/mL. Also, the concentration for half-maximal inhibition (IC50) in test [1] is 0.67 µg/mL.

B7: SDP031 humanized anti-Cad-11 EC1 antibody (Vκ1/VH3) (antibody, IgG4, V domains shown)
VH: EVQLVQSGAEVKKPGASVKISCKASGYSFTGYFMNWVRQAPGQGLEWIGRINPYTGDTFYNQKFKGRATLTVDKSTSTAYMELSSLRSEDTAVYYCGRLGSRYWYFDVWGQGTTVTVSS
VL: DVLMTQTPLSSPVTLGQPASISCRSSQSIIHSNGNTYLEWYLQKPGQSPQLLIYKVSNRFSGVPDRFTGSGSGTDFTLKISRVEAEDVGVYYCFQGSHVPWTFGQGTKLEIK
notes: humanized IgG4 (S241P), kappa
As to B7, the “IC50 (read off the curve)” value in test [2] was around 0.2 µg/mL. The IC50 in test [1] is 0.84 µg/mL.

B8: SDP121 humanized anti-Cad-11 EC1 antibody (Vκ3/VH2) (antibody, IgG4, V domains shown)
VH: EVQLVQSGAEVKKPGASVKISCKASGYSFTGYFMNWVKQAPGQGLEWIGRINPYTGDTFYNQKFKGRATLTVDKSTSTAYMELSSLRSEDTAVYYCGRLGSRYWYFDVWGQGTTVTVSS
VL: DVVMTQTPLSSPVTLGQPASISCRSSQSIIHSNGNTYLEWYLQKPGQSPQLLIYKVSNRFSGVPDRFSGSGSGTDFTLKISRVEAEDVGVYYCFQGSHVPWTFGQGTKLEIK
notes: humanized IgG4 (S241P), kappa
For the molecule B8, the IC50 in test [1] stood at 0.52 µg/mL. Moreover, the “IC50 (read off the curve)” value in test [3] was around 0.2 µg/mL.

B9: SDP111 humanized anti-Cad-11 EC1 antibody (Vκ3/VH1) (antibody, IgG4, V domains shown)
VH: EVQLVQSGPELKKPGASVKISCKASGYSFTGYFMNWVKQAHGQGLEWIGRINPYTGDTFYNQKFKGRATLTVDKSSSTAYMELVSLSSEDSAVYYCGRLGSRYWYFDVWGQGTTVTVSS
VL: DVVMTQTPLSSPVTLGQPASISCRSSQSIIHSNGNTYLEWYLQKPGQSPQLLIYKVSNRFSGVPDRFSGSGSGTDFTLKISRVEAEDVGVYYCFQGSHVPWTFGQGTKLEIK
notes: humanized IgG4 (S241P), kappa
B9: the IC50 in test [1] was determined as 0.68 µg/mL. Further, the “IC50 (read off the curve)” value in test [3] was around 0.2 µg/mL.

B10: SDP101 humanized anti-Cad-11 EC1 antibody (Vκ2/VH5) (antibody, IgG4, V domains shown)
VH: EVQLVQSGAEVKKPGASVKVSCKASGYSFTGYFMNWVRQAPGQGLEWIGRINPYTGDTFYNQKFKGRVTITVDKSTSTAYMELSSLRSEDTAVYYCGRLGSRYWYFDVWGQGTTVTVSS
VL: DVLMTQTPLSSPVTLGQPASISCRSSQSIIHSNGNTYLEWYLQKPGQSPQLLIYKVSNRFSGVPDRFSGSGSGTDFTLKISRVEAEDVGVYYCFQGSHVPWTFGQGTKLEIK
notes: humanized IgG4 (S241P), kappa
For B10, the IC50 in test [1] was found to be 0.53 µg/mL.

B11: SDP151 humanized anti-Cad-11 EC1 antibody (Vκ3/VH5) (antibody, IgG4, V domains shown)
VH: EVQLVQSGAEVKKPGASVKVSCKASGYSFTGYFMNWVRQAPGQGLEWIGRINPYTGDTFYNQKFKGRVTITVDKSTSTAYMELSSLRSEDTAVYYCGRLGSRYWYFDVWGQGTTVTVSS
VL: DVVMTQTPLSSPVTLGQPASISCRSSQSIIHSNGNTYLEWYLQKPGQSPQLLIYKVSNRFSGVPDRFSGSGSGTDFTLKISRVEAEDVGVYYCFQGSHVPWTFGQGTKLEIK
notes: humanized IgG4 (S241P), kappa
For B11, the IC50 in test [1] turned out to be 0.72 µg/mL. The “IC50 (read off the curve)” value in test [3] is around 0.2 µg/mL.

B12: SDP011 humanized anti-Cad-11 EC1 antibody (Vκ1/VH1) (antibody, IgG4, V domains shown)
VH: EVQLVQSGPELKKPGASVKISCKASGYSFTGYFMNWVKQAHGQGLEWIGRINPYTGDTFYNQKFKGRATLTVDKSSSTAYMELVSLSSEDSAVYYCGRLGSRYWYFDVWGQGTTVTVSS
VL: DVLMTQTPLSSPVTLGQPASISCRSSQSIIHSNGNTYLEWYLQKPGQSPQLLIYKVSNRFSGVPDRFTGSGSGTDFTLKISRVEAEDVGVYYCFQGSHVPWTFGQGTKLEIK
notes: humanized IgG4 (S241P), kappa
In the case of B12, in test [2], the “IC50 (read off the curve)” value is around 0.2 µg/mL. Besides, the IC50 in test [1] was 0.91 µg/mL.

Broadly, the IC50 is the concentration needed to halve the response being measured.
